In assay [1] the target is T1, Human GPA33 (recombinant protein, Novoprotein) (human, UniProt Q99795 22-235).
T1 construct: Bought recombinant protein immobilized on a CM5 chip; also called GPA33 antigen; tumor antigen GPA33
T1 sequence: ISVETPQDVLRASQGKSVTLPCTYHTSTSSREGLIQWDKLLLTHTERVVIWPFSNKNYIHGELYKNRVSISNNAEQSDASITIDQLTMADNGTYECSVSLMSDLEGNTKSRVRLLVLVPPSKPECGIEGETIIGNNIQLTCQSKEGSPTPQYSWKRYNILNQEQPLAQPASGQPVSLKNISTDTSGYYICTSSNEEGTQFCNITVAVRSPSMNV
In words: SPR (Biacore), human GPA33 immobilised on the chip; reference row. The gist of the method:
(§1)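 Affinity (KD) was measured by surface plasmon resonance on a Biacore system, with recombinant human GPA33 (Novoprotein) immobilised on a CM5 sensor chip. Antibodies were injected at five concentrations, 2-fold serial dilutions starting at 20 nM. The sensorgrams were fitted kinetically to give rate constants and KD. Each KD is given as a ratio to the KD of a reference molecule.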

For assay [2], the target named is T1, Human GPA33 (recombinant protein, …). The assay can be described thus: SPR (Biacore), human GPA33 immobilized on CM5 chip, two-state fit. The procedure: (§2) SPR analysis. Human GPA33 (Novoprotein, Summit, NJ) was immobilized on CM5 chips. Five concentrations of 2-fold serially diluted huA33 IgG1 or huA33-BsAbs (starting at 20 nM) were flowed over the chip using a Biacore™ T100 system (GE Healthcare, Chicago, IL). Binding kinetics of huA33 were measured at 25° C. and binding kinetics of huA33-BsAbs were measured at both 25° C. and 37° C. The sensorgrams were fitted with two state binding model for both to derive kinetic parameters.
A general note: Surface plasmon resonance follows binding to a sensor surface in real time, without labels.

Assay [3] concerns the target T2, Human GPA33 on GPA33+ colorectal cancer cell lines (Colo 205, LS 174T, SW 1222) (human, UniProt Q99795 22-319).
T2 construct: Endogenous GPA33 on human colorectal cancer cell lines; also called surface human GPA33; GPA33+ tumor cell lines
T2 sequence: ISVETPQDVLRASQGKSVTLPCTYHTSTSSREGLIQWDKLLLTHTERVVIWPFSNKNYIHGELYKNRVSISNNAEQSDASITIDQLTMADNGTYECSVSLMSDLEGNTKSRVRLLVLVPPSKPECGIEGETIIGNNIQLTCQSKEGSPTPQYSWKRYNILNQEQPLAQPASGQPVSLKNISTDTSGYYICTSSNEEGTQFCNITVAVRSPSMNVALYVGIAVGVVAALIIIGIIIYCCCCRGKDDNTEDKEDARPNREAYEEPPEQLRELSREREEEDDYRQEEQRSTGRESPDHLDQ
In words: FACS titration on LS174T cells, geometric mean MFI [Cont.].

In assay [4] the target is T1, Human GPA33 (recombinant protein, …). In words: SPR (Biacore), human GPA33 immobilized on CM5 chip, two-state fit, kd1. The gist of the method:
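Kinetic parameters, including the off-rate (kd1), were obtained by fitting surface plasmon resonance sensorgrams to a two-state binding model. On a Biacore T100 with recombinant human GPA33 immobilised on a CM5 chip, antibodies were passed over at five 2-fold serial dilutions from 20 nM. Runs used 25° C for the parent IgG1, and 25° C and 37° C for the bispecific formats.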

Assay [5] has as its target T2, Human GPA33 on GPA33+ colorectal cancer …. The assay can be described thus: FACS titration on SW1222 cells, geometric mean MFI [Cont.].
Assay [6] has the same target. The assay can be described thus: FACS titration on Colo205 cells, geometric mean MFI.
In assay [7] the target is T1, Human GPA33 (recombinant protein, …). In words: SPR (Biacore), human GPA33 immobilized on CM5 chip, two-state fit, ka1. The procedure: as §2
The target in assay [8] is T2, Human GPA33 on GPA33+ colorectal cancer …. The assay can be described thus: FACS titration on SW1222 cells, geometric mean MFI (the text prints 1.78 nM and calls it IC50) [Cont.].
The target is the same in assay [9]. In words: FACS binding to Colo205 cells (GPA33+). For orientation: In flow cytometry, cells or beads pass a laser one at a time.
The target is the same in assay [10]. In words: FACS binding to SW1222 cells (GPA33+); the text prints 1.78 nM for this pair.
For assay [11] the target is unchanged. In words: FACS binding to LS174T cells (GPA33+).
Assay [12] has the same target. The assay can be described thus: FACS binding to SW1222 cells (GPA33+).
The target is the same in assay [13]. In words: FACS titration on SW1222 cells, geometric mean MFI (same value as in FIG. 4A; the text prints 1.78 nM) [contd.].
In assay [14] the target is T1, Human GPA33 (recombinant protein, …). In words: SPR (Biacore), human GPA33 immobilised on the chip; KD relative to that of TC170. The essentials:
as §1

Assay [15] deals with T2, Human GPA33 on GPA33+ colorectal cancer …. The assay can be described thus: flow cytometry, LS 174T cells.
The target is the same in assay [16]. The assay can be described thus: flow cytometry, SW 1222 cells.
Assay [17] has the same target. The assay can be described thus: flow cytometry, Colo 205 cells; Colo 205 cells.

For orientation: Kd means the constant that tells how readily two partners part at equilibrium. Usually EC50 stands for the concentration needed to bring the measured effect to its halfway point. The term koff denotes the first-order rate constant of dissociation. One may read the kon as the second-order rate constant of association. The IC50 is the concentration that gives 50% inhibition.

B1: BC015 (G3A H1L4) (bispecific antibody, human IgG1, kappa, N297A)
heavy: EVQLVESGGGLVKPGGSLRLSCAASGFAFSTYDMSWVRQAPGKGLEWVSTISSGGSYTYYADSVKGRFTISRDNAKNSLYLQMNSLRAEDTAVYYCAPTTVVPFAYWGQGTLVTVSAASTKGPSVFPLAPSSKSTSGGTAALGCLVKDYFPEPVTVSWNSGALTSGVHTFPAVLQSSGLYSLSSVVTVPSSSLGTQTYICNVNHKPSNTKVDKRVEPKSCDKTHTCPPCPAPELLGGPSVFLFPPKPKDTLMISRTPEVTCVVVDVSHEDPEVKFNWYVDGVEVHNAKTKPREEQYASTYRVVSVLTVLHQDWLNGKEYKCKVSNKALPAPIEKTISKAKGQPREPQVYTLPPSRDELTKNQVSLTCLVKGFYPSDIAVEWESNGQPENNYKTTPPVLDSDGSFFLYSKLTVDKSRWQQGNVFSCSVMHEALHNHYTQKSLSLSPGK
light: DIQMTQSPSSLSASVGDRVTITCKASQNVRTVVAWYQQKPGKAPKTLIYLASNRHTGVPSRFSGSGSGTEFTLTISNLQPEDFATYYCLQHWSYPLTFGSGTKLEVKRTVAAPSVFIFPPSDEQLKSGTASVVCLLNNFYPREAKVQWKVDNALQSGNSQEKSVTEQDSKDSTYSLSSTLTLSKADYEKHKVYACEVTHQGLSSPVTKSFNRGECTSGGGGSGGGGSGGGGSHVQLVESGGGLVQPGGSLRLSCAASGFSLTDYGVHWVRQAPGKGLEWLGVIWSGGGTAYNTALISRFTISRDNSKNTLYLQMNSLRAEDTAVYYCARRGSYPYNYFDAWGCGTLVTVSSGGGGSGGGGSGGGGSGGGGSGGGGSGGGGSQAVVTQEPSLTVSPGGTVTLTCGSSTGAVTASNYANWVQQKPGQCPRGLIGGHNNRPPGVPARFSGSLLGGKAALTLLGAQPEDEAEYYCALWYSDHWVIGGGTKLTVLG
notes: GPA33xDOTA IgG-[L]-scFv with human IgG1 constant region carrying N297A and K322A; The anti-DOTA scFv is fused to the C-terminus of the light chain; also called BC177; GPA33 BsAb-IgG (BC177)
In the case of B1, the “Fold change of KD (relative to BC015, lower is better)” value in assay [1] was 1. Further, in [2], the Kd was determined as 0.118 nM, the ka2 turned out to be 0.00307 s⁻¹ and the kd2 was determined as 0.00177 s⁻¹. Also, in [3], a half-maximal response (EC50) required 0.39 nM. In addition, in assay [4], the koff amounted to 0.00141 s⁻¹. This molecule also gave an EC50 in assay [5] of 0.71 nM. In assay [6], this molecule registered a 50% effective concentration (EC50) of 1.04 nM. In addition, the on-rate constant (kon) in assay [7] stood at 4.36e+06 M⁻¹ s⁻¹.

B2: TC171 (bispecific antibody)
chain: DIQMTQSPSSLSASVGDRVTITCKASQNVRTVVAWYQQKPGKAPKTLIYLASNRHTGVPSRFSGSGSGTEFTLTISNLQPEDFATYYCLQHWSYPLTFGSGTKLEVKRGGGGSGGGGSGGGGSGGGGSGGGGSGGGGSEVQLVESGGGLVKPGGSLRLSCAASGFAFSTYDMSWVRQAPGKGLEWVSTISSGGSYTYYADSVKGRFTISRDNAKNSLYLQMNSLRAEDTAVYYCAPTTVVPFAYWGQGTLVTVSAGGGGSGGGGSGGGGSGGGGSHVQLVESGGGLVQPGGSLRLSCAASGFSLTDYGVHWVRQAPGKGLEWLGVIWSGGGTAYNTALISRFTISRDNSKNTLYLQMNSLRAEDTAVYYCARRGSYPYNYFDAWGCGTLVTVSSGGGGSGGGGSGGGGSGGGGSGGGGSGGGGSQAVVTQEPSLTVSPGGTVTLTCGSSTGAVTASNYANWVQQKPGQCPRGLIGGHNNRPPGVPARFSGSLLGGKAALTLLGAQPEDEAEYYCALWYSDHWVIGGGTKLTVLGTPLGDTTHTSGKPLDGEYFTLQIRGRERFEMFRELNEALELKDAQAGKEPGGSGGAPHHHHHH
notes: As TC170, with the other VH/VL orientation of the anti-GPA33 scFv; Carries the p53 SADA (tetramerization) domain; also called GPA33xDOTA SADA
On to B2, for which, in assay [2], the Kd amounted to 0.023 nM. Further, in assay [2], the ka2 came out at 0.00663 s⁻¹. For the same molecule, the kd2 in [2] came out at 0.000628 s⁻¹. Besides, the concentration for a half-maximal effect (EC50) in assay [8] worked out at 0.77 nM; in [10], 1.77 nM; in assay [13] it was 0.77 nM; in [17], 1.04 nM. Further, the “fold change of binding EC50 (relative to TC170, lower is better)” value was found to be 1.41 in [9], 1.81 in assay [11] and 1.07 in [12]. Moreover, the “Fold change of KD (relative to TC170, lower is better)” value in [14] was determined as 1.5. Further, the koff in assay [4] came to 0.000886 s⁻¹. The results for the IC50 in assay [15] and in assay [16] were 0.56 nM and 1.78 nM, respectively. For the same molecule, in assay [7], the on-rate constant (kon) is 3.34e+06 M⁻¹ s⁻¹.

For the origin of these results see patent US20240026037A1 (Memorial Sloan Kettering, published 2024).
